Source: patent US20250264455

Molecular target: T1, P2-TmEnc^BC2-Tag
T1 chain: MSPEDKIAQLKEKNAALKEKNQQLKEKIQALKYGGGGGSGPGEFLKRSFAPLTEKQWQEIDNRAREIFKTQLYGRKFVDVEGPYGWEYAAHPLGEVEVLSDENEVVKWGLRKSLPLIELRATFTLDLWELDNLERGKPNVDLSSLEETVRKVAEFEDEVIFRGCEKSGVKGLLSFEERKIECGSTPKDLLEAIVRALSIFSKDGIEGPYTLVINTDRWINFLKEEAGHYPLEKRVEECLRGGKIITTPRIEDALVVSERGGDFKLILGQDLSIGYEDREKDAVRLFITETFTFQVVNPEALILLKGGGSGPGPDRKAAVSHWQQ

B1: BmTyr-P1 (protein)
chain: MGHSNKYRVRKNVLHLTDTEKRDFVRTVLILKEKGIYDRYIAWHGAAGKFHTPPGSDRNAAHMSSAFLPWHREYLLRFERDLQSINPEVTLPYWEWETDAQMQDPSQSQIWSADFMGGNGNPIKDFIVDTGPFAAGRWTTIDEQGNPSGGLKRNFGATKEAPTLPTRDDVLNALKITQYDTPPWDMTSQNSFRNQLEGFINGPQLHNRVHRWVGGQMGVVPTAPNDPVFFLHHANVDRIWAVWQIIHRNQNYQPMKNGPFGQNFRDPMYPWNTTPEDVMNHRKLGYVYDIELRKSKRSSGGGGSGGGGSTGSPEDEIQALEEENAQLEQENAALEEEIAQLEYGSGSETPGTSESATPESAISHGFPPEVEEQAAGTLPMSCAQESGMDRHPAACASARINV
melanin formation on CN-PAGE: melanin formation could be demonstrated by color formation on CN-PAGE | melanin formation on clear native PAGE: The dark high molecular weight bands at 1.0 MDa represent melanin-loaded TmEnc nanospheres
